Patent US20230028110A1 (ADAPTATE BIOTHERAPEUTICS, published 2023)
Like-named read-outs stand apart in the source and are kept apart here.

What was measured:
[1] = biological target: T1, Recombinant human PD-1 (human, UniProt Q15116 25-167, limits assumed); experiment: SPR, Reichert 4SPR; antibody captured on Protein A chip, human PD-1 flown over
T1 construct: also called programmed cell death protein 1
Procedure: Recombinant human Vδ1 heterodimer or human PD-1 was flown over the cell at a top concentration of 100 nM.

[2] = biological target: T2, Recombinant human TIGIT (human, UniProt Q495A1 22-141); experiment: SPR, Reichert 4SPR; antibody captured on Protein A chip, human TIGIT flown over
T2 construct: also called T cell immunoreceptor with Ig and ITIM domains
T2 sequence (looked up): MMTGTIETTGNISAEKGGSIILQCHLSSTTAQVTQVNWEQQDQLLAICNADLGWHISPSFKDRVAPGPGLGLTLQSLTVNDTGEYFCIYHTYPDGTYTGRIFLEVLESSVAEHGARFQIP
Procedure: Recombinant human Vδ1 heterodimer or human TIGIT was flown over the cell at a top concentration of 100 nM.

[3] = biological target: T3, Vδ1 chain of the γδ TCR on human Vδ1 γδ T cells (human); experiment: flow cytometry on Vδ1 γδ T-cells, anti-human IgG secondary antibody, % IgG bound cells
T3 construct: whole, on cells; also called cell surface Vδ1 TCR; Vδ1-positive γδ T cells
Procedure: After washing, cells were incubated for a further 15 minutes with anti-human IgG secondary antibodies before washing and fixing. The amount of antibody bound to each cell type was determined by flow cytometry.

[4] = biological target: T3, Vδ1 chain of the γδ TCR on human Vδ1 γδ …; experiment: flow cytometry, anti-human IgG secondary antibody, Vδ1 γδ T-cells
Procedure: Initially CD4 and CD8 T-cells were negatively selected by magnetic sorting from PBMC buffy coats extracted from whole blood. […] After washing, cells were incubated for a further 15 minutes with anti-human IgG secondary antibodies before washing and fixing. The amount of antibody bound to each cell type was determined by flow cytometry.

[5] = biological target: T4, L1 (DV1-GV4), soluble human Vδ1/Vγ4 γδ TCR heterodimer in leucine zipper format (human); experiment: SPR (Reichert 4SPR), antibody on Protein A chip, antigen flown over
T4 construct: Biotinylated in the DELFIA ranking; also called Antigen L1 (TRDV1/TRGV4); human DV1-GV4; not shown: gamma chain: Vγ4 (TRGV4) domain on a TCR constant region, leucine zipper, histidine tag

[6] = biological target: T4, L1 (DV1-GV4), soluble human Vδ1/Vγ4 γδ …; experiment: as above; remark: listed apart in the source
Procedure: (§1) Recombinant human Vδ1 heterodimer or human OX40 was flown over the cell at a top concentration of 100 nM.

[7] = biological target: T3, Vδ1 chain of the γδ TCR on human Vδ1 γδ …; experiment: flow cytometry, Vδ1 γδ T cells of donor ATS006, mAb titrated up to about 500 nM at 4 C, anti-human IgG detection
Procedure: (§2) All incubation steps were performed at 4° C. and mAb binding was determined using flow cytometry to measure the median level of fluorescence. Logarithmic four parameter dose-response curves were fitted using GraphPad Prism 9. […] For Vδ1-positive γδ T cell, data is represented as the mean two donors.
(§3) A range of target cells were assayed to determine the specificity and affinity of Vδ1 mAb binding. This included expanded skin-derived Vδ1 γδ T-cells, HEK293T cells, Raji cells, and multiple leukocyte subsets within human primary blood mononuclear cells. Adherent or semi-adherent cells (skin-derived Vδ1 γδ T-cells, HEK293T) were detached from tissue culture flask and resuspended in PBS. Similarly, non-adherent cell types (Raji, PBMC), were harvested and resuspended in PBS. Cells were seeded at a final density of 100,000 cells per well in v-bottom 96-well plates. Cells underwent centrifugation and the cell pellets were resuspended in FcR blocking reagent according to the manufacturer's instructions, and incubated for 20 minutes at 4C prior to a further wash. […] To determine the quantity of mAb bound to the cell surface, the cells were then stained with a murine anti-human IgG secondary antibody, conjugated to APC (dilution: 1:100). For Vδ1 γδ T-cells, HEK293T and Raji, the cells were also stained solely with a viability dye.

[8] = biological target: T4, L1 (DV1-GV4), soluble human Vδ1/Vγ4 γδ …; experiment: SPR (Reichert 4SPR), antibody on Protein A chip, antigen flown over; remark: listed apart in the source
Procedure: Recombinant human Vδ1 heterodimer or human FAPα was flown over the cell at a concentration of 100 nM with the following parameters: 180 s association, 480 s dissociation, flowrate 25 μL/min, running buffer PBS+0.05% Tween 20. All experiments were performed at room temperature.

[9] = biological target: T5, Recombinant human OX40 (human, UniProt P43489 29-216, limits assumed); experiment: SPR, Reichert 4SPR; antibody captured on Protein A chip, human OX40 flown over
T5 construct: also called CD134
T5 sequence (looked up): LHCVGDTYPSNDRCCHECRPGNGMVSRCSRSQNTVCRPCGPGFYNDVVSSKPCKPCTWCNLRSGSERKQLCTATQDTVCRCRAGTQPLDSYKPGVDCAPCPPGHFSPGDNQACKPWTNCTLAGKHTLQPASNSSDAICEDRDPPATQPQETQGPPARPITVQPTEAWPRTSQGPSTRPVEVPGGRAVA
Procedure: as §1

[10] = biological target: T3, Vδ1 chain of the γδ TCR on human Vδ1 γδ …; experiment: flow cytometry, Vδ1 γδ T cells of donor TS164, mAb titrated up to about 500 nM at 4 C, anti-human IgG detection
Procedure: as §2, §3

T4 sequence (main, as listed by the source): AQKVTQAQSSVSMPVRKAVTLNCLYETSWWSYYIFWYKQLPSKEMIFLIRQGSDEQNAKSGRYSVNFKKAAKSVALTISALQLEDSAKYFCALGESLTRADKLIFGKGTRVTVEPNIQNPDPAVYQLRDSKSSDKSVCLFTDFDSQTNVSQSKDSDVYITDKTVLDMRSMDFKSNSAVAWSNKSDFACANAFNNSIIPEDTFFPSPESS
T3 sequence (A0A1B0GX56 22-115, stated change not applied): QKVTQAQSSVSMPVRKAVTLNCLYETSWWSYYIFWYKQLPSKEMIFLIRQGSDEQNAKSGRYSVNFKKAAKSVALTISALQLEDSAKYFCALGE
T1 sequence (Q15116 25-167 limits assumed): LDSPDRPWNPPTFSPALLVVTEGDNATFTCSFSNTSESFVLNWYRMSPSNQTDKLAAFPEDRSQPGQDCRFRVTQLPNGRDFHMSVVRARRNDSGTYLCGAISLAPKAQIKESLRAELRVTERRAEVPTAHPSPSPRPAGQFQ

B1: ADT1-4-2 (antibody, IgG1, V domains shown)
VH: EVQLQQSGPGLVKPSQTLSLTCAISGDSVSSKSAAWNWIRQSPSRGLEWLGRTYYRSKWSTDYAASVKSRITINPDTSKNQLSLQLNSVTPEDTAVYYCARTWVGYVDRWGQGTLVTVSS
VL: DIQMTQSPPALSASVGDRVTITCRASQDINDWLAWYQHKPGKAPKLLIYDASSLESGVPLRFSGSGSGTEFTLTISSLQPDDFATYYCQQKYSAPQVTFGQGTRLEIK
notes: IgG1
For B1, the binding result [1] was “no binding”, the binding result [2] was “no binding” and the “EC50 (read off the curve)” value [3] was roughly 0.3 nM. The “EC50 (read off the curve)” value [4] was roughly 0.2 nM, the Kd [5] was 0.01 nM and the Kd [6] was 1.25 nM. The “EC50 (read off the curve)” value [7] was roughly 2 nM, the Kd [8] was 0.14 nM and the binding result [9] was “no binding”. The “EC50 (read off the curve)” value [10] was roughly 2 nM.
